Assay: yeast display, Sf9 membrane polyspecificity reagent, FACS + sequencing; frameworks hold sequencing errors
Summary of the method: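 Nanobodies from a synthetic yeast display library (Saccharomyces cerevisiae BJ5465), induced 36–48 hours with galactose, were stained 1 hour at 4 °C with 10% biotinylated, detergent-solubilized Sf9 membrane reagent, enriched on streptavidin microbeads, then FACS-sorted. Anti-HA (expression) and streptavidin (reagent binding) fluorescence set low and high (top ~1%) gates. Polyreactivity labels come from the gate of origin. Genes were colony-PCR amplified, MiSeq 2 × 250 sequenced and filtered by CDR length.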

| Sequence | polyreactivity (PSR sort gate) |
| --- | --- |
| QVQLVESGGGLVQAGGSLRLSCAASGRTFLWYAMGWYRQAPGKERELVAAITTAGSTYYADSVKGLFTISRDNAKNTVYLLMNSLKPEDTAVYYCNRLTYAYPPPVLGVGHDSWGQGTQVTVSS | low polyreactivity |
| QVQLVESGGGLVQAGGSLRLSCAASGRTFLWYDMGWYRQAPGKERELVAGITSDGITYYADSVKGRFTISRDNAKNTVNLQMNSLKPEDTAVYYCAADGIYPDAVYFGYPMYYWGQGTQVTVSS | low polyreactivity |
| QVQLVESGGGLVQAGGSLRLSCAASGRTFLYNAMGWYREAPGTERELVAAISTNGSSTYYADSVKGRFTISRDNAKNTVYLQMNSLKPEDTAVYYCAAQPPLDYEFPYRYGYWGQGTQVTVSS | low polyreactivity |
| QVQLVESGGGLVQAGGSLRLSCAASGRTFLYNVMGWYRQAPGKERELVAAITSGGRTYYADSVKGRFTISRDNAKNTVYLQMNSLKPEVTAVYYCAADPYFYYYGYDYWGQGTQVTVSS | low polyreactivity |
| QVQLVESGGGLVQAGGSLRLSCAASGRTFLYYAMGWYRQAPGKERELVAAITWSGGSTYYADSVKGRFTISRDNAKNTVYLQMNSLKPEDTAVYYCAALGWIDWYWQPGMDYWGQGTQVTVSS | high polyreactivity |
| QVQLVESGGGLVQAGGSLRLSCAASGRTFLYYAMGWYRQAPGKERELVASISTGGSTNYADSVKGRFTISRDNAKNTVYLQMNSLKPEDTAVYYCATEYPYSYFSIAHYHHGYWGQGTQVTVSS | low polyreactivity |
| QVQLVESGGGLVQAGGSLRLSCAASGRTFMRNAMGLYRQAPGKERELVAAISRSGGSTYYADSVKGRFTISRDNAKNTVYLQMNSLKPEDTAVYYCAADDYGGYYYWGQGTQVTVSS | high polyreactivity |
| QVQLVESGGGLVQAGGSLRLSCAASGRTFNAMGWSRQAPGKERELVASISRRGGSTSYADSVKGRFTISRDNAKNTVYLQMYSLKPEDTAVYYCAARVGWVRYGYWGQGTQVTVSS | low polyreactivity |
| QVQLVESGGGLVQAGGSLRLSCAASGRTFNDYTMGWYRQAPGKERELVAAISSSGVRTYYADSVKGRFTISRDNAKNTVYLQMNSLKPEDTAVYYAKRAGYDRRWTYDYWGQGTQVTVSS | high polyreactivity |
| QVQLVESGGGLVQAGGSLRLSCAASGRTFNFYAMGWYRQAPGKERELVATISGGVSTYYADSVKGRFTISRDNAKNTVYLQMNSLKPEDTAVYYCAKDSGYPQWDLDYWGQGTQVTVSS | high polyreactivity |
| QVQLVESGGGLVQAGGSLRLSCAASGRTFNGDAMGWYRQAPGKERELVAAISSSGGSTYYADSVKGRFTISRDNAKNTVYLQMNSLKPEDTAVYYCAARRANGFNYWGHGTQVTVSS | high polyreactivity |
| QVQLVESGGGLVQAGGSLRLSCAASGRTFNGNTMGWYRQAPGKERQLVAAISRNGGRTYYADSVKGRFTISRDNAKNTVYLQMNSLKPEDTAVYYCATVYRPGGVYGYWGQGTQVTVSS | high polyreactivity |
| QVQLVESGGGLVQAGGSLRLSCAASGRTFNGYAMGWYRQAPGKERELVAGISWRGTSTYYADSVKGRFTISRDNAKNTVYLQMNSLKPEDTAVYYCAADVWRVQHRGYNYWGQGTQVTVSS | high polyreactivity |
| QVQLVESGGGLVQAGGSLRLSCAASGRTFNGYVMGWYSQAPGKEREFVAVINWSGGNTYYADSVKGRFTISRDNAKNTVYLQMNSLKPEDTAVYYCAARRVRSYAYDYWGQGTQVTVSS | high polyreactivity |
| QVQLVESGGGLVQAGGSLRLSCAASGRTFNIYAMGWYRQAPGKERELVAAITWRSGSTYYADSVKGRFTISRDNAKNTVYLQMNSLTPEDTAVYYCAAEQWSCVPEFDYWGQGTQVTVSS | high polyreactivity |
| QVQLVESGGGLVQAGGSLRLSCAASGRTFNIYAMGWYRQAPGKVRELVAAISSGGSTYYADSVKGRFTISRDNAKNTVYLQMNSLKPEDTAVYYCAAVEFELRGDYWGQGTQVTVSS | low polyreactivity |
| QVQLVESGGGLVQAGGSLRLSCAASGRTFNPYVMGWYRQAPGKERELVARIRGSGTSTYYADSVKGRFTISRDNAKNTVYLHMNSLKPEDTAVYYCAAAQSKYSFYWGDYYYWGQGTQVTVSS | high polyreactivity |
| QVQLVESGGGLVQAGGSLRLSCAASGRTFNRNAMGWYRPAPGKERELVAAISWGGSRTYYADSVKGRFTISRDNAKNTVYLQMNSLKPEDTAVYYCAVDGFRGRSHGANDYWGQGTQVTVSS | high polyreactivity |
| QVQLVESGGGLVQAGGSLRLSCAASGRTFNRNAMGWYRQAPGKERELVAAISWGGSRTYYADSVKGRFTISRDNAKNTVYLQMNSLKPEDTAVYYCAVDGFRGRSHGANDYWGQGTQVTVSS | high polyreactivity |
| QVQLVESGGGLVQAGGSLRLSCAASGRTFNRNAMGWYRQAPGKERELVAAISWGGSRTYYADSVKGRFTISRDTAKNTVYLQMNSLKPEDTAVYYCAVDGFRGRSHGANDYWGQGTQVTVSS | high polyreactivity |
| QVQLVESGGGLVQAGGSLRLSCAASGRTFNRNTMGWYRQAPGKERELVAGITKRGGSTYYADSVKGRFTISRDNAKNTVYLQMNSLKPEDTAVYYCNAATNGSPPDYDYWGQGTQVNVSS | high polyreactivity |
| QVQLVESGGGLVQAGGSLRLSCAASGRTFNRYAMGWYRQAPGKERELVAAINSVGSTYYADSVKGRFPISRDNAKNTVYLQMNSLKPEDTAVYYCNAVQGSRFGYWGQGTQVTVSS | high polyreactivity |

| Sequence | polyreactivity (PSR sort gate) |
| --- | --- |
| QVQLVESGGGLVQAGGSLRLSCAASGRTFNRYAMGWYRQAPGKERELVAAISYGGGRTYYADSVKGRFTISRDNAKNTVYLQMYSLKPEDTAVYYCNAVFGYQSPGGYDYWGQGTQVTVSS | high polyreactivity |
| QVQLVESGGGLVQAGGSLRLSCAASGRTFNSNAMGWYRQAPGKERELVAAISGRTGRTYYADSVKGRFTISRDNAKNTVYLQMNSLKPEDTAVYYCATGTYAAAQGTRYYYWGQGTQVTVSS | high polyreactivity |
| QVQLVESGGGLVQAGGSLRLSCAASGRTFNSYAMGWYRPAPGKERELVATISSRGGNTFYADSVKGRFTISRDYAKNTVYLQMNRLKPEDTAVYYCAKPGYLRPSRYDYWGQGTQVTVSS | high polyreactivity |
| QVQLVESGGGLVQAGGSLRLSCAASGRTFNTNAMGWYRQAPGKERELVAAITRSGDSTYYADSVKGRFTISRDNAKNTVYLQMNSLKPEDTAVYYCAAYSRTLYPDRYYWGHGTQVTVSS | high polyreactivity |
| QVQLVESGGGLVQAGGSLRLSCAASGRTFNTYTMGWYRQAPGKERELVAAITGTGGSTFYADSVKGRFTISRDNAKNTVYLQMNSLKPEDTAVYYCNADLEGTIGVYTDGFDSDYWGQGTQVTVSS | low polyreactivity |
| QVQLVESGGGLVQAGGSLRLSCAASGRTFNVNVMGWSRQAPGKERELVAAIRYTGGSTYADSVKGRFTISRDNAKNTVYLQMNSLKPEDTAVYYCNADTFFPFDHGMDYWGQGTQVTVSS | low polyreactivity |
| QVQLVESGGGLVQAGGSLRLSCAASGRTFNVNVMGWYRQAPGKERELVAAIRYTGGSTYADSVKGRFTISRDNAKNTVYLQMNSLKPEDTAVYYCNADTFFPFDHGMDYWGQGTQVTVSS | low polyreactivity |
| QVQLVESGGGLVQAGGSLRLSCAASGRTFNVYAMGWYRQAPGKERELVAGISSSGGSTYYADSVKGRFTISRDNAKNTVYLQMNSLKPEDTAVYYCNTVYKYHGVRPYGYWGQGTQVTVSS | high polyreactivity |
| QVQLVESGGGLVQAGGSLRLSCAASGRTFNWNAMGWYRQAPGKERELVAAITSGGSTYNADSVKGLFTISRDNAKNTVYLQMNSLKPEDTAVYYCAGRINFYRSKYYYWGQGTQVTVSS | high polyreactivity |
| QVQLVESGGGLVQAGGSLRLSCAASGRTFNWYAMGWYRQAPGKERELVAAITQSGGITSYADSVKGRFTISRDNAKNTVYLQMNSLKPEDTAVYYCATTSRYSRSHYDWYDYWGQGTQVTVSS | low polyreactivity |
| QVQLVESGGGLVQAGGSLRLSCAASGRTFNYYAMGWYRQAPGKERELVAAISSRGGTYYADSVKGRFTISRDNAKNTVYLQMNSLKPEDTAVYYCNAVHYDTISDYWGQGTQVTVSS | high polyreactivity |
| QVQLVESGGGLVQAGGSLRLSCAASGRTFNYYVMGWYRRAPGKERELVAAITWRGGRTYADSVKGRFTISRDNAKNTVYLQMNSLKPEDTAVYYCAAYTTKGYGYWGQGTQVTVSS | high polyreactivity |
| QVQLVESGGGLVQAGGSLRLSCAASGRTFPAYAMGWYRQAPGKERELVAAISSSGSRTYYADSVKGRFTISRDNAKNTVYLQMNSLKPEDTAVYYCAARGGRRQKVNRDDYWGQGTQVTVSS | high polyreactivity |
| QVQLVESGGGLVQAGGSLRLSCAASGRTFPFYAMGWYRQAPGKERELVAAINSGGITNYADSVKGRFTISRDNAKNTVYLQMNSLKPEDTAVYYCAAKTAFYRERGYWGQGTQVTVSS | low polyreactivity |
| QVQLVESGGGLVQAGGSLRLSCAASGRTFPGNAMGWSRQAPGKERELVATITWSSGRTHYADSVKGRFTISRDNAKNTVYLQMNSLKPEDTAVYYCAAKWIVAVGGFYYWGQGTQVTVSS | low polyreactivity |
| QVQLVESGGGLVQAGGSLRLSCAASGRTFPGTAMGWYRQAPGKVRELVAAISSSGGSTHYADSVKGRFTISRDTAKNTVYYQMNSLKPEDTAVYYCNTVYAVWYKLDYWGQGTQVTVSS | high polyreactivity |
| QVQLVESGGGLVQAGGSLRLSCAASGRTFPGYAMGCYRQAPGKERELVATITFSDGSTYYADSVKGRFTISRDNAKITVYLQMNSLKPEDTAVYYCNARRSYFLRYGVNYWGQGTQVTVST | low polyreactivity |
| QVQLVESGGGLVQAGGSLRLSCAASGRTFPGYAMGWYRQAPGKERELVAAITSSGDDTYYADSVKGRFTISRDNAKNTVYLQMYSLKPEDTAVYYCRLFRRSADSSFDYEYWGQGTQVTVSS | low polyreactivity |
| QVQLVESGGGLVQAGGSLRLSCAASGRTFPGYAMGWYRQAPGKERELVATITGNGGSTYYADSVKGRFTISRDNAKNTVYLQMNSLKPEDTAVYYCAAGRRRPYVRAYRGTDYWGQGTQVTVSS | low polyreactivity |
| QVQLVESGGGLVQAGGSLRLSCAASGRTFPGYTMGWSRQAPGKERELVAAISYSGGSTYYADSVKGRFTISRDNAKNTVYLQMYSLKPEDTAVYYCAAAYDRQRRYSWVGERYYWGQGTQVTVSS | high polyreactivity |
| QVQLVESGGGLVQAGGSLRLSCAASGRTFPLNAMGWFRQAPGKERELVAAITWSGGRTYYADSVKGRFTISRDNAKNTVYLQMNSLKPEDTAVYYCAAKRTTWKIQSGYDYWGQGTQVTVSS | low polyreactivity |

Reference: the nanobody polyreactivity screen of Harvey et al. (2022)
